Data on five molecules can be found in US20210187091A1 (DUKE UNIVERSITY, published 2021).

Assay [1] has as its target T1, Man9-V3 glycopeptide (HIV-1 clade B JRFL, Man9GlcNAc2 at N301 and at N332; disulfide bridge between C296 and C331 (cyclized); biotin tag).
T1 construct: 30-amino acid synthetic V3 glycopeptide based on the clade B JRFL mini-V3 construct (residues 305-320 deleted); captured by its biotin on streptavidin sensors, or tetramerized on streptavidin for sorting; also called Man-V3 glycopeptide; Man9-V3-biotin
T1 peptide: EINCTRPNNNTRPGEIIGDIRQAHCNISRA
Briefly: BLI, biotinylated Man9-V3 on streptavidin sensors, antibody in solution, bivalent avidity model. For orientation: In BLI a coated tip is dipped into the sample, and binding shifts an interference pattern.
Protocol: Kinetics analyses were performed by global curve fitting using bivalent avidity model and as described in methods (“Affinity measurements” section).
Antibody binding kinetic rate constants (ka, kd) of the Man9-V3 glycopeptide and its aglycone form (16) were measured by Bio-layer Interferometry (BLI, ForteBio Octet Red96) measurements. The BLI assay was performed using streptavidin coated sensors (ForteBio) to capture either biotin-tagged Man₉-V3 glycopeptide or Aglycone-V3 peptide. The V3 peptide immobilized sensors were dipped into varying concentrations of antibodies following blocking of sensors in BSA (0.1%). Antibody concentrations ranged from 0.5 to 150 μg/mL and non-specific binding interactions were subtracted using the control anti-RSV Palivizumab (Synagis) mAb. Rate constants were calculated by global curve fitting analyses to the Bivalent Avidity model of binding responses with a 10 min association and 15 min dissociation interaction time. The dissociation constant (Kd) values without avidity contribution were derived using the initial components of the association and dissociation rates (ka1 and kd1) respectively.

Assay [2] addresses T1, Man9-V3 glycopeptide. Briefly: BLI, biotinylated Man9-V3 on streptavidin sensors, antibody in solution.
The target in assay [3] is T2, cell surface membrane expressed CH848 TF Env trimer (CHO cells) (HIV-1 clade C (CH848 …)).
T2 construct: also called cell surface membrane expressed gp160 trimers; CH848 Env trimer expressed on the cell surface of CHO cells
Briefly: flow cytometry on CHO cells expressing CH848 TF Env trimer. (In flow cytometry, cells or beads pass a laser one at a time.)

Where a chain is given by its changes, count along the chain named. Some results are limits rather than exact numbers.

B1: DH270.6 (antibody, V domains shown)
VH: QVQLVQSGAQMKNPGASVKVSCAPSGYTFTDFYIHWLRQAPGQGLQWMGWMNPQTGRTNTARNFQGRVIMTRDTSIGTAYMELRSLTSDDTAIYYCTTGGWISLYYDSSYYPNFDHWGQGTLLTVSS
VL: TSLLTQPASVSGSPGQSITISCTGTKYDVGSHDLVSWYQQYPGKVPKYMIYEVNKRPSGVSNRFSGSKSGNTASLTISGLRAEDEADYYCCSFGGSATVVCGGGTKVTVL
notes: Recombinant IgG
In the case of B1, the Kd in assay [1] worked out at 188 nM.

B2: DH270.IA3 (antibody, V domains shown)
VH: EVQLVESGPELKEPGASVKVSCKASGYTFTDYYIHWVRQAPGQGLEWMAWINPTTGRSSFARGFQGRVIMTRETSVSTAYMELRRLRSDDTAVYYCAKAGYIALYVDYSGYPNFNSWGQGTLVTVSS
VL: QSALTQPASVSGSPGQSITISCTGTSYDVGSYNLVSWYQQHPGKAPKLIIYEVSQWPSGVSKRFSGSKSGNTASLTISGLQAEDEAHYYCCSYAGSSTVIFGGGTSLTVL
Take B2: the Kd in assay [2] was above 10000 nM.

B3: DH270.IA4 (antibody, V domains shown)
VH: QVQLVQSGAEVKKPGASVKVSCKASGYTFTDYYIHWVRQAPGQGLEWMGWINPNTGRTNYAQKFQGRVTMTRDTSISTAYMELSRLRSDDTAVYYCARGGWIGLYYDSSGYPNFDYWGQGTLVTVSS
VL: B2 VL with I49M, Q55K, W56R, K62N, H87D, S106K
notes: Inferred intermediate, recombinant IgG; copies: 2 + 2
Consider B3, for which the binding result in assay [3] is reported as “no binding (tested: 5 µg/mL)”.

B4: DH270.UCA (antibody, V domains shown)
VH: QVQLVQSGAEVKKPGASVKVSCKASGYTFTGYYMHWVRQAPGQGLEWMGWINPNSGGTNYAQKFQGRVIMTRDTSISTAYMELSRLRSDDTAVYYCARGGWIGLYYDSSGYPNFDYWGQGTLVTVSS
VL: B2 VL with Y27S, I49M, Q55K, W56R, K62N, H87D, S106K
notes: also called UCA4; DH270UCA4
With B4, the binding result in assay [3] was “no binding (tested: 5 µg/mL)”.

B5: DH270.IA2 (antibody, V domains shown)
VH: B3 VH with V11M, R87T, R98T
VL: B2 VL with L48Y, I49M, S54N, Q55K, W56R, K62N, H87D, S106K
notes: Inferred intermediate, recombinant IgG
Take B5: the binding result in assay [3] was “no binding (tested: 5 µg/mL)”.
